Results reported in patent US20220204580A1 (AstraZeneca / MedImmune, published 2022).
One block for each binder: values may come before it. Numbered stars: 1 amine (or outer) side, 2 acyl side, 3 side chain; on linkers, the order of the positions; unused ones are H or OH. Bridge positions count the residues as written; N and C are the ends. Square brackets hold non-standard residues; d marks the D form. Side chains are listed from the residue outwards. Ends that are not written are not given here. * marks the point of attachment. C18 diacid = O=C(O)CCCCCCCCCCCCCCCCC(=O)*; γGlu = O=C(O)[C@H](CCC(=O)[*:2])N[*:1]; Aib = CC(C)(N)C(=O)O

Experiments:
[1] = target: T1, human amylin receptor (calcitonin receptor co-expressed with receptor activity modifying protein, RAMP3) (human, UniProt P30988 25-474; O60896 24-148); test: cell-based or functional assay
T1 sequence (looked up) 1: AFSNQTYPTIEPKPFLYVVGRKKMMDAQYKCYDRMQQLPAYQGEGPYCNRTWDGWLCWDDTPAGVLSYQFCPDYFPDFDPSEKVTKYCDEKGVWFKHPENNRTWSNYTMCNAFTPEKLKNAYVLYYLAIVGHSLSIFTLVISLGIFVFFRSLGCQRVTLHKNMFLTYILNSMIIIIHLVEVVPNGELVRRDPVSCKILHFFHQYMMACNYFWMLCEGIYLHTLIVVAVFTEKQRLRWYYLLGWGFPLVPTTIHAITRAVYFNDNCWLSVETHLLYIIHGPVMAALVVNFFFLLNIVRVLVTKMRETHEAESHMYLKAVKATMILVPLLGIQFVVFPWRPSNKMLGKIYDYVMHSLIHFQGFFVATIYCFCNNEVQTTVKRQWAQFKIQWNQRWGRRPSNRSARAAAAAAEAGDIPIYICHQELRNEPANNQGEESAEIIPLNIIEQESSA
T1 sequence (looked up) 2: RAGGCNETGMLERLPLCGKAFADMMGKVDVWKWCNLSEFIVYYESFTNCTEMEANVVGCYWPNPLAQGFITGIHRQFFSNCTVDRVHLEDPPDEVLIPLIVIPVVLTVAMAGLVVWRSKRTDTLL

[2] = target: T2, human calcitonin receptor (human, UniProt P30988 25-474); test: cell-based or functional assay
T2 sequence (looked up): T1 sequence (looked up) 1

EC50 (cAMP production) [1]: 0.238 nM
Ratio (EC50 hCTR / EC50 hAMYR3) [1]: 6.3
EC50 (cAMP production) [2]: 1.5 nM
B1: Peptide 137 (SEQ ID NO: 137) (peptide)
peptide: K([γGlu-C18 diacid])KCNTATCATQRLANFL[Aib]HSSRNFGPILPPTNVGSNTY-NH2
modifications: disulfide 3-8; N-terminus assumed
SMILES: CC[C@H](C)[C@H](NC(=O)[C@@H]1CCCN1C(=O)CNC(=O)[C@H](Cc1ccccc1)NC(=O)[C@H](CC(N)=O)NC(=O)[C@H](CCCNC(=N)N)NC(=O)[C@H](CO)NC(=O)[C@H](CO)NC(=O)[C@H](Cc1c[nH]cn1)NC(=O)C(C)(C)NC(=O)[C@H](CC(C)C)NC(=O)[C@H](Cc1ccccc1)NC(=O)[C@H](CC(N)=O)NC(=O)[C@H](C)NC(=O)[C@H](CC(C)C)NC(=O)[C@H](CCCNC(=N)N)NC(=O)[C@H](CCC(N)=O)NC(=O)[C@@H](NC(=O)[C@H](C)NC(=O)[C@@H]1CSSC[C@H](NC(=O)[C@H](CCCCN)NC(=O)[C@@H](N)CCCCNC(=O)CC[C@H](NC(=O)CCCCCCCCCCCCCCCCC(=O)O)C(=O)O)C(=O)N[C@@H](CC(N)=O)C(=O)N[C@@H]([C@@H](C)O)C(=O)N[C@@H](C)C(=O)N[C@@H]([C@@H](C)O)C(=O)N1)[C@@H](C)O)C(=O)N[C@@H](CC(C)C)C(=O)N1CCC[C@H]1C(=O)N1CCC[C@H]1C(=O)N[C@H](C(=O)N[C@@H](CC(N)=O)C(=O)N[C@H](C(=O)NCC(=O)N[C@@H](CO)C(=O)N[C@@H](CC(N)=O)C(=O)N[C@H](C(=O)N[C@@H](Cc1ccc(O)cc1)C(N)=O)[C@@H](C)O)C(C)C)[C@@H](C)O

EC50 (cAMP production) [1]: 0.612 nM
Ratio (EC50 hCTR / EC50 hAMYR3) [1]: 4.1
EC50 (cAMP production) [2]: 2.51 nM
B4: Peptide 138 (SEQ ID NO: 138) (peptide)
peptide: K([γGlu-C18 diacid])KCNTATCATQRLANFL[Aib]HSSPNFGPILPPTEVGSNTY-NH2
modifications: disulfide 3-8; N-terminus assumed
SMILES: CC[C@H](C)[C@H](NC(=O)[C@@H]1CCCN1C(=O)CNC(=O)[C@H](Cc1ccccc1)NC(=O)[C@H](CC(N)=O)NC(=O)[C@@H]1CCCN1C(=O)[C@H](CO)NC(=O)[C@H](CO)NC(=O)[C@H](Cc1c[nH]cn1)NC(=O)C(C)(C)NC(=O)[C@H](CC(C)C)NC(=O)[C@H](Cc1ccccc1)NC(=O)[C@H](CC(N)=O)NC(=O)[C@H](C)NC(=O)[C@H](CC(C)C)NC(=O)[C@H](CCCNC(=N)N)NC(=O)[C@H](CCC(N)=O)NC(=O)[C@@H](NC(=O)[C@H](C)NC(=O)[C@@H]1CSSC[C@H](NC(=O)[C@H](CCCCN)NC(=O)[C@@H](N)CCCCNC(=O)CC[C@H](NC(=O)CCCCCCCCCCCCCCCCC(=O)O)C(=O)O)C(=O)N[C@@H](CC(N)=O)C(=O)N[C@@H]([C@@H](C)O)C(=O)N[C@@H](C)C(=O)N[C@@H]([C@@H](C)O)C(=O)N1)[C@@H](C)O)C(=O)N[C@@H](CC(C)C)C(=O)N1CCC[C@H]1C(=O)N1CCC[C@H]1C(=O)N[C@H](C(=O)N[C@@H](CCC(=O)O)C(=O)N[C@H](C(=O)NCC(=O)N[C@@H](CO)C(=O)N[C@@H](CC(N)=O)C(=O)N[C@H](C(=O)N[C@@H](Cc1ccc(O)cc1)C(N)=O)[C@@H](C)O)C(C)C)[C@@H](C)O

Second part, the binder before the results:

B2: Peptide 135 (SEQ ID NO: 135) (peptide)
peptide: K([γGlu-C18 diacid])KCNTATCATQRLANFL[Aib]HSSNHFGPILPPTNVGSNTY-NH2
modifications: disulfide 3-8; N-terminus assumed
SMILES: CC[C@H](C)[C@H](NC(=O)[C@@H]1CCCN1C(=O)CNC(=O)[C@H](Cc1ccccc1)NC(=O)[C@H](Cc1c[nH]cn1)NC(=O)[C@H](CC(N)=O)NC(=O)[C@H](CO)NC(=O)[C@H](CO)NC(=O)[C@H](Cc1c[nH]cn1)NC(=O)C(C)(C)NC(=O)[C@H](CC(C)C)NC(=O)[C@H](Cc1ccccc1)NC(=O)[C@H](CC(N)=O)NC(=O)[C@H](C)NC(=O)[C@H](CC(C)C)NC(=O)[C@H](CCCNC(=N)N)NC(=O)[C@H](CCC(N)=O)NC(=O)[C@@H](NC(=O)[C@H](C)NC(=O)[C@@H]1CSSC[C@H](NC(=O)[C@H](CCCCN)NC(=O)[C@@H](N)CCCCNC(=O)CC[C@H](NC(=O)CCCCCCCCCCCCCCCCC(=O)O)C(=O)O)C(=O)N[C@@H](CC(N)=O)C(=O)N[C@@H]([C@@H](C)O)C(=O)N[C@@H](C)C(=O)N[C@@H]([C@@H](C)O)C(=O)N1)[C@@H](C)O)C(=O)N[C@@H](CC(C)C)C(=O)N1CCC[C@H]1C(=O)N1CCC[C@H]1C(=O)N[C@H](C(=O)N[C@@H](CC(N)=O)C(=O)N[C@H](C(=O)NCC(=O)N[C@@H](CO)C(=O)N[C@@H](CC(N)=O)C(=O)N[C@H](C(=O)N[C@@H](Cc1ccc(O)cc1)C(N)=O)[C@@H](C)O)C(C)C)[C@@H](C)O
EC50 (cAMP production) [1]: 0.296 nM
Ratio (EC50 hCTR / EC50 hAMYR3) [1]: 1.2
EC50 (cAMP production) [2]: 0.345 nM

B3: Peptide 136 (SEQ ID NO: 136) (peptide)
peptide: K([γGlu-C18 diacid])KCNTATCATQRLANFL[Aib]HSSNNFGPILPPTNVGSNTP-NH2
modifications: disulfide 3-8; N-terminus assumed
SMILES: CC[C@H](C)[C@H](NC(=O)[C@@H]1CCCN1C(=O)CNC(=O)[C@H](Cc1ccccc1)NC(=O)[C@H](CC(N)=O)NC(=O)[C@H](CC(N)=O)NC(=O)[C@H](CO)NC(=O)[C@H](CO)NC(=O)[C@H](Cc1c[nH]cn1)NC(=O)C(C)(C)NC(=O)[C@H](CC(C)C)NC(=O)[C@H](Cc1ccccc1)NC(=O)[C@H](CC(N)=O)NC(=O)[C@H](C)NC(=O)[C@H](CC(C)C)NC(=O)[C@H](CCCNC(=N)N)NC(=O)[C@H](CCC(N)=O)NC(=O)[C@@H](NC(=O)[C@H](C)NC(=O)[C@@H]1CSSC[C@H](NC(=O)[C@H](CCCCN)NC(=O)[C@@H](N)CCCCNC(=O)CC[C@H](NC(=O)CCCCCCCCCCCCCCCCC(=O)O)C(=O)O)C(=O)N[C@@H](CC(N)=O)C(=O)N[C@@H]([C@@H](C)O)C(=O)N[C@@H](C)C(=O)N[C@@H]([C@@H](C)O)C(=O)N1)[C@@H](C)O)C(=O)N[C@@H](CC(C)C)C(=O)N1CCC[C@H]1C(=O)N1CCC[C@H]1C(=O)N[C@H](C(=O)N[C@@H](CC(N)=O)C(=O)N[C@H](C(=O)NCC(=O)N[C@@H](CO)C(=O)N[C@@H](CC(N)=O)C(=O)N[C@H](C(=O)N1CCC[C@H]1C(N)=O)[C@@H](C)O)C(C)C)[C@@H](C)O
EC50 (cAMP production) [1]: 0.122 nM
Ratio (EC50 hCTR / EC50 hAMYR3) [1]: 0.8
EC50 (cAMP production) [2]: 0.101 nM

B5: Peptide 133 (SEQ ID NO: 133) (peptide)
peptide: K([γGlu-C18 diacid])KCNTATCATQRLANFL[Aib]HSSSNFGPILPPTNVGSNTY-NH2
modifications: disulfide 3-8; N-terminus assumed
SMILES: CC[C@H](C)[C@H](NC(=O)[C@@H]1CCCN1C(=O)CNC(=O)[C@H](Cc1ccccc1)NC(=O)[C@H](CC(N)=O)NC(=O)[C@H](CO)NC(=O)[C@H](CO)NC(=O)[C@H](CO)NC(=O)[C@H](Cc1c[nH]cn1)NC(=O)C(C)(C)NC(=O)[C@H](CC(C)C)NC(=O)[C@H](Cc1ccccc1)NC(=O)[C@H](CC(N)=O)NC(=O)[C@H](C)NC(=O)[C@H](CC(C)C)NC(=O)[C@H](CCCNC(=N)N)NC(=O)[C@H](CCC(N)=O)NC(=O)[C@@H](NC(=O)[C@H](C)NC(=O)[C@@H]1CSSC[C@H](NC(=O)[C@H](CCCCN)NC(=O)[C@@H](N)CCCCNC(=O)CC[C@H](NC(=O)CCCCCCCCCCCCCCCCC(=O)O)C(=O)O)C(=O)N[C@@H](CC(N)=O)C(=O)N[C@@H]([C@@H](C)O)C(=O)N[C@@H](C)C(=O)N[C@@H]([C@@H](C)O)C(=O)N1)[C@@H](C)O)C(=O)N[C@@H](CC(C)C)C(=O)N1CCC[C@H]1C(=O)N1CCC[C@H]1C(=O)N[C@H](C(=O)N[C@@H](CC(N)=O)C(=O)N[C@H](C(=O)NCC(=O)N[C@@H](CO)C(=O)N[C@@H](CC(N)=O)C(=O)N[C@H](C(=O)N[C@@H](Cc1ccc(O)cc1)C(N)=O)[C@@H](C)O)C(C)C)[C@@H](C)O
EC50 (cAMP production) [1]: 0.378 nM
Ratio (EC50 hCTR / EC50 hAMYR3) [1]: 6.8
EC50 (cAMP production) [2]: 2.58 nM

B6: Peptide 134 (SEQ ID NO: 134) (peptide)
peptide: K([γGlu-C18 diacid])KCNTATCATQRLANFL[Aib]HSSNNFGPILPPTPVGSNTY-NH2
modifications: disulfide 3-8; N-terminus assumed
SMILES: CC[C@H](C)[C@H](NC(=O)[C@@H]1CCCN1C(=O)CNC(=O)[C@H](Cc1ccccc1)NC(=O)[C@H](CC(N)=O)NC(=O)[C@H](CC(N)=O)NC(=O)[C@H](CO)NC(=O)[C@H](CO)NC(=O)[C@H](Cc1c[nH]cn1)NC(=O)C(C)(C)NC(=O)[C@H](CC(C)C)NC(=O)[C@H](Cc1ccccc1)NC(=O)[C@H](CC(N)=O)NC(=O)[C@H](C)NC(=O)[C@H](CC(C)C)NC(=O)[C@H](CCCNC(=N)N)NC(=O)[C@H](CCC(N)=O)NC(=O)[C@@H](NC(=O)[C@H](C)NC(=O)[C@@H]1CSSC[C@H](NC(=O)[C@H](CCCCN)NC(=O)[C@@H](N)CCCCNC(=O)CC[C@H](NC(=O)CCCCCCCCCCCCCCCCC(=O)O)C(=O)O)C(=O)N[C@@H](CC(N)=O)C(=O)N[C@@H]([C@@H](C)O)C(=O)N[C@@H](C)C(=O)N[C@@H]([C@@H](C)O)C(=O)N1)[C@@H](C)O)C(=O)N[C@@H](CC(C)C)C(=O)N1CCC[C@H]1C(=O)N1CCC[C@H]1C(=O)N[C@H](C(=O)N1CCC[C@H]1C(=O)N[C@H](C(=O)NCC(=O)N[C@@H](CO)C(=O)N[C@@H](CC(N)=O)C(=O)N[C@H](C(=O)N[C@@H](Cc1ccc(O)cc1)C(N)=O)[C@@H](C)O)C(C)C)[C@@H](C)O
EC50 (cAMP production) [1]: 0.281 nM
Ratio (EC50 hCTR / EC50 hAMYR3) [1]: 7.9
EC50 (cAMP production) [2]: 2.22 nM
